Experimental data: patent publication US20050227306

Key:
[1] = test system: His6-tetraCys-X-MBP protease substrate 23-F [MBP: P0AEX9]
[2] = test system: His6-tetraCys-X-MBP protease substrate 26-F [MBP: P0AEX9]
[3] = test system: His6-tetraCys-X-MBP protease substrate 21-F [MBP: P0AEX9]
[4] = test system: His6-tetraCys-X-MBP protease substrate 22-F [MBP: P0AEX9]
[5] = test system: His6-tetraCys-X-MBP protease substrate 25-F [MBP: P0AEX9]
[6] = test system: His6-tetraCys-X-MBP protease substrate 24-F [MBP: P0AEX9]

Substance | relative rate of reaction (initial proteolysis rate by fluorescence anisotropy, normalised to the cognate substrate) (relative rate) [1] | relative rate of reaction (initial proteolysis rate by fluorescence anisotropy, normalised to the cognate substrate) [2] | relative rate of reaction (initial proteolysis rate by fluorescence anisotropy, normalised to the cognate substrate) (relative rate) [3] | relative rate of reaction (initial proteolysis rate by fluorescence anisotropy, normalised to the cognate substrate) (relative rate) [4] | specific reaction rate (slope of initial proteolysis rate versus protease concentration) [4] | relative rate of reaction (initial proteolysis rate by fluorescence anisotropy, normalised to the cognate substrate) (relative rate) [5] | relative rate of reaction (initial proteolysis rate by fluorescence anisotropy, normalised to the cognate substrate) (relative rate) [6] | SDS-PAGE with Coomassie staining after overnight incubation [1] | relative rate of reaction (initial proteolysis rate by fluorescence anisotropy, normalised to the cognate substrate) (relative rate) [2] | SDS-PAGE with Coomassie staining after overnight incubation [3] | SDS-PAGE with Coomassie staining after overnight incubation [4] | SDS-PAGE with Coomassie staining after overnight incubation [5] | SDS-PAGE with Coomassie staining after overnight incubation [6] | specific reaction rate (per supplier's unit of enzyme) [6] | specific reaction rate (per supplier's unit of enzyme) [5] | specific reaction rate (slope of initial proteolysis rate versus protease concentration) [5] | specific reaction rate (per supplier's unit of enzyme) [1] | relative rate of reaction (initial proteolysis rate by fluorescence anisotropy, normalised to the cognate substrate) [5]
Trypsin | 0.1 | n.d. (not detected) | 0.3 | 1 | trypsin; 760±60 | 0.5 | 0.4 |  |  |  |  |  |  |  |  |  |  | 
Factor Xa | 0.01 |  | 0.04 | 0.5 |  | 0.05 | 1 | formation of a small amount of a small molecular-weight band | 0 | formation of a small amount of a small molecular-weight band | little or no intact fusion protein was detected after an overnight incubation | formation of a small amount of a small molecular-weight band | little or no intact fusion protein was detected after an overnight incubation | Factor Xa, 0.37±0.03 |  |  |  | 
Thrombin | -0.02 |  | 0 | 0.4 |  | 1 | 0 |  | 0 |  |  |  |  |  | thrombin, 0.20±0.02 | thrombin; 240±20 |  | 
Enterokinase | 1 |  | 0.5 | 1.3 |  |  | 0.2 |  | 1 |  |  |  |  |  |  |  | enterokinase, 0.130±0.007 | n.d. (not detected)
